This is an account of results in patent US20200270359A1 (Genmab, published 2020).

The target of experiment [1] is T1, human (Homo sapiens) CD37 (human (Homo sapiens), UniProt P11049 1-281).
T1 construct: Full-length protein on cells: endogenous on Daudi cells, Raji cells and B cells in human blood; also called Leukocyte Antigen CD37; GP52-40
T1 sequence: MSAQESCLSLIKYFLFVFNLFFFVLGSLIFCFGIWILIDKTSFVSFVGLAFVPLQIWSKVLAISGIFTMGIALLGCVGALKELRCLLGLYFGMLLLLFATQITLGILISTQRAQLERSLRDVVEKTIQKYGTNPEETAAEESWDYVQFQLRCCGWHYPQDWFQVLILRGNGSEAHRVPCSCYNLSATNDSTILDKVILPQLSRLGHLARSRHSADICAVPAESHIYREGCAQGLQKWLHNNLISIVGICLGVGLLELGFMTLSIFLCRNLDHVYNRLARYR
In words: flow cytometry on Daudi cells. The method, then: (§1) Binding to cell surface expressed CD37 (Daudi cells, CHO cells expressing cynomolgus CD37) was determined by flow cytometry. Cells, resuspended in RPMI containing 0.2% BSA, were seeded at 100,000 cells/well in polystyrene 96 well round-bottom plates (Greiner bio-one Cat #650101) and centrifuged for 3 minutes at 300×g, 4° C. Serial dilutions (0.003-10 μg/mL final antibody concentration in 3.33× serial dilutions) of CD37 or control antibodies were added and cells were incubated for 30 minutes at 4° C. Plates were washed/centrifuged twice using FACS buffer (PBS/0.1% BSA/0.01% Na-Azide). Next, cells were incubated for 30 minutes at 4° C. with R-Phycoerythrin (PE)-conjugated goat-anti-human IgG F(ab′)2 (Jackson ImmunoResearch Laboratories, Inc., West Grove, Pa.; cat #: 109-116-098) diluted 1/100 in PBS/0.1% BSA/0.01% Na-Azide. Cells were washed/centrifuged twice using FACS buffer, resuspended in 30 μL FACS buffer and analyzed by determining mean fluorescent intensities using an Intellicyt iQue™ screener (Westburg). Binding curves were generated using non-linear regression (sigmoidal dose-response with variable slope) analyses within GraphPad Prism V6.04 software (GraphPad Software, Sand Diego, Calif., USA).
On the technique in general: A flow cytometer gives signals particle by particle.

Experiment [2] addresses T2, cynomolgus monkey (Macaca fascicularis) CD37 (cynomolgus monkey (Macaca fascicularis), UniProt P11049 1-281 (human entry)).
T2 construct: also called mfCD37; Cynomolgus CD37
T2 chain: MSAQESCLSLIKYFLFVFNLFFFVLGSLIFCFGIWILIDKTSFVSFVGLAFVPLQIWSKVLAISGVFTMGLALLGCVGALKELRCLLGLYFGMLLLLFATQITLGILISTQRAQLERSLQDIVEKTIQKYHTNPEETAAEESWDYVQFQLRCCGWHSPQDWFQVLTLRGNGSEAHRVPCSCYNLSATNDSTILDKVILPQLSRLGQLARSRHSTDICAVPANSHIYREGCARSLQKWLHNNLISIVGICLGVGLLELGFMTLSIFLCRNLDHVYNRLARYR
Briefly: flow cytometry on CHO cells expressing cynomolgus monkey CD37. The method, then:
as §1
Binding to CHO cells expressing cynomolgus monkey CD37 was determined by flow cytometry using a method as described above.

B1: IgG1-016-H5L2-E430G (antibody)
heavy: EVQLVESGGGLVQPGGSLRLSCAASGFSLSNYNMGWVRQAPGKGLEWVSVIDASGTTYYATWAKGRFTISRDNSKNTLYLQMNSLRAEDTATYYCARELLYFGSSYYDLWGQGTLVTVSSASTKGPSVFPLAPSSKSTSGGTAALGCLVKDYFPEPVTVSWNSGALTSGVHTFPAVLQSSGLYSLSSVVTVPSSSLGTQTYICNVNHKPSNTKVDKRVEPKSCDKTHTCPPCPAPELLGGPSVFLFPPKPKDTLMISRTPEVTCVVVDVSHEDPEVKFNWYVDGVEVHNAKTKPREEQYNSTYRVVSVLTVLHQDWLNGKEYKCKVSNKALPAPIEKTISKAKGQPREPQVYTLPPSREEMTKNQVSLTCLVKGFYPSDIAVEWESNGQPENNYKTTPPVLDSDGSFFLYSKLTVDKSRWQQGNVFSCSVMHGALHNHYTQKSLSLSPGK
light: DVVMTQSPSTLSASVGDRVTITCQASQNIDSNLAWYQQKPGKAPKFLIYYASNLPFGVPSRFKGSGSGTEFTLTISSLQPDDFATYYCQCADVGSTYVAAFGGGTKVEIKRTVAAPSVFIFPPSDEQLKSGTASVVCLLNNFYPREAKVQWKVDNALQSGNSQESVTEQDSKDSTYSLSSTLTLSKADYEKHKVYACEVTHQGLSSPVTKSFNRGEC
notes: IgG1,kappa with E430G (EU numbering)
Regarding B1, the binding result in experiment [1] and in experiment [2] was “binds” each time.

B2: IgG1-016-H5L2-LC90S-F405L-E430G (antibody, V domains shown)
VH: EVQLVESGGGLVQPGGSLRLSCAASGFSLSNYNMGWVRQAPGKGLEWVSVIDASGTTYYATWAKGRFTISRDNSKNTLYLQMNSLRAEDTATYYCARELLYFGSSYYDLWGQGTLVTVSS
VL: DVVMTQSPSTLSASVGDRVTITCQASQNIDSNLAWYQQKPGKAPKFLIYYASNLPFGVPSRFKGSGSGTEFTLTISSLQPDDFATYYCQSADVGSTYVAAFGGGTKVEIKR
notes: IgG1,kappa; light chain C90S, heavy chain F405L and E430G (EU numbering)
In the case of B2, the binding result in experiment [1] is recorded as “binds”.

B3: IgG1-016-H5L2-F405L-E430G (antibody)
heavy: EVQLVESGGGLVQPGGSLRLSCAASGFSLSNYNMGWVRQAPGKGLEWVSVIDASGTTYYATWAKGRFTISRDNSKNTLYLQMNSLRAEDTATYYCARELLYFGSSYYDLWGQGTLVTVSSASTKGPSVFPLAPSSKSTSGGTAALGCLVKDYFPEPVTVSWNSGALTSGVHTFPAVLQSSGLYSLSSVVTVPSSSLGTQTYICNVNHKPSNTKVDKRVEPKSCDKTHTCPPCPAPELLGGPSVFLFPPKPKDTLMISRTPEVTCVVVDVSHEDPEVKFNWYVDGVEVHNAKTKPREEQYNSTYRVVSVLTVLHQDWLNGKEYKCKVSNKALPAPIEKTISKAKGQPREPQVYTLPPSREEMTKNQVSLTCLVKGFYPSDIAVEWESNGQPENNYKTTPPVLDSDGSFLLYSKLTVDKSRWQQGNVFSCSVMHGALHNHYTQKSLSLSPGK
light: DVVMTQSPSTLSASVGDRVTITCQASQNIDSNLAWYQQKPGKAPKFLIYYASNLPFGVPSRFKGSGSGTEFTLTISSLQPDDFATYYCQCADVGSTYVAAFGGGTKVEIKRTVAAPSVFIFPPSDEQLKSGTASVVCLLNNFYPREAKVQWKVDNALQSGNSQESVTEQDSKDSTYSLSSTLTLSKADYEKHKVYACEVTHQGLSSPVTKSFNRGEC
notes: IgG1,kappa with F405L and E430G (EU numbering)
Turning to B3, the binding result in experiment [1] is on record as “binds”.

B4: IgG1-016-H5L2 (antibody)
heavy: not shown
light: DVVMTQSPSTLSASVGDRVTITCQASQNIDSNLAWYQQKPGKAPKFLIYYASNLPFGVPSRFKGSGSGTEFTLTISSLQPDDFATYYCQCADVGSTYVAAFGGGTKVEIKRTVAAPSVFIFPPSDEQLKSGTASVVCLLNNFYPREAKVQWKVDNALQSGNSQESVTEQDSKDSTYSLSSTLTLSKADYEKHKVYACEVTHQGLSSPVTKSFNRGEC
notes: Humanized, IgG1,kappa
Consider B4, for which the binding result in experiment [1] is “binds”.

B5: IgG1-010-H5L2 (antibody)
heavy: not shown
light: AYDMTQSPSTLSASVGDRVTITCQASQNIIDYLAWYQQKPGKAPKLLIHKASTLASGVPSRFKGSGSGTEFTLTISSLQPDDFATYYCQQGYSNSNIDNTFGGGTKVEIKRTVAAPSVFIFPPSDEQLKSGTASVVCLLNNFYPREAKVQWKVDNALQSGNSQESVTEQDSKDSTYSLSSTLTLSKADYEKHKVYACEVTHQGLSSPVTKSFNRGEC
notes: Humanized, IgG1,kappa
B5: in experiment [1], the binding result is recorded as “binds”.

B6: IgG1-010-H5L2-E430G (antibody)
heavy: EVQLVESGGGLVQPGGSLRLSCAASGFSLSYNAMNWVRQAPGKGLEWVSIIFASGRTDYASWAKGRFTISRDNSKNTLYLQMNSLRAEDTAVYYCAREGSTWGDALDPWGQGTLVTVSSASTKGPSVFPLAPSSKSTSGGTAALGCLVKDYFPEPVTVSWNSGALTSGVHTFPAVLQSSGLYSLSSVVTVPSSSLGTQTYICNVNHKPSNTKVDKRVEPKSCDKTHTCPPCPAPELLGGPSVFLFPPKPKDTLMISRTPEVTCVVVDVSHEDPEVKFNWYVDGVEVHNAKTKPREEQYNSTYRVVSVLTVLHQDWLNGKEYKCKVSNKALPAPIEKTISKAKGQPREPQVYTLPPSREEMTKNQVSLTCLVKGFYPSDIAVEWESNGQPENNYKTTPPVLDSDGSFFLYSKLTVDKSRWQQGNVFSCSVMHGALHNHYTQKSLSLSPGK
light: AYDMTQSPSTLSASVGDRVTITCQASQNIIDYLAWYQQKPGKAPKLLIHKASTLASGVPSRFKGSGSGTEFTLTISSLQPDDFATYYCQQGYSNSNIDNTFGGGTKVEIKRTVAAPSVFIFPPSDEQLKSGTASVVCLLNNFYPREAKVQWKVDNALQSGNSQESVTEQDSKDSTYSLSSTLTLSKADYEKHKVYACEVTHQGLSSPVTKSFNRGEC
notes: as for B1
Consider B6, for which the binding result in experiment [1] and in experiment [2] was “binds” each time.

B7: IgG1-004-H5L2 (antibody)
heavy: not shown
light: AQVLTQSPSPLSASVGDRVTITCQASQSVYNSQNLAWYQQKPGKAPKLLIYEASKLASGVPSRFKGSGSGTEFTLTISSLQPDDFATYYCQGEFSCISADCTAFGGGTKVEIKRTVAAPSVFIFPPSDEQLKSGTASVVCLLNNFYPREAKVQWKVDNALQSGNSQESVTEQDSKDSTYSLSSTLTLSKADYEKHKVYACEVTHQGLSSPVTKSFNRGEC
As to B7, in experiment [1], the binding result is given as “binds”.

B8: IgG1-004-H5L2-E430G (antibody)
heavy: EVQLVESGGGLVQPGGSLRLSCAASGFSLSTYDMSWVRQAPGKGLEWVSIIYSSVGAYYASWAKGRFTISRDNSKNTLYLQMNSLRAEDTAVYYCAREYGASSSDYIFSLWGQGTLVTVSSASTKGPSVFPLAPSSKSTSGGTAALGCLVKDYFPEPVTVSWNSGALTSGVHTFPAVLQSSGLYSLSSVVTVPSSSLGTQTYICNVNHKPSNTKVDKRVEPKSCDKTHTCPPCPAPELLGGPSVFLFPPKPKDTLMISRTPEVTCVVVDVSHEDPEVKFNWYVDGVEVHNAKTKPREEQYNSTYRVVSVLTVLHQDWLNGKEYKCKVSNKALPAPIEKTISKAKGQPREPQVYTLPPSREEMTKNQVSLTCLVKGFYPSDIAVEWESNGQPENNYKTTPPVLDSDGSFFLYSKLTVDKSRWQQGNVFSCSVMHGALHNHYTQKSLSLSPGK
light: AQVLTQSPSPLSASVGDRVTITCQASQSVYNSQNLAWYQQKPGKAPKLLIYEASKLASGVPSRFKGSGSGTEFTLTISSLQPDDFATYYCQGEFSCISADCTAFGGGTKVEIKRTVAAPSVFIFPPSDEQLKSGTASVVCLLNNFYPREAKVQWKVDNALQSGNSQESVTEQDSKDSTYSLSSTLTLSKADYEKHKVYACEVTHQGLSSPVTKSFNRGEC
notes: as for B1
Regarding B8, the binding result in experiment [1] and in experiment [2] was “binds” in each case.

B9: IgG1-G28.1 (antibody)
heavy: not shown
light: DIQMTQSPASLSASVGETVTITCRTSENVYSYLAWYQQKQGKSPQLLVSFAKTLAEGVPSRFSGSGSGTQFSLKISSLQPEDSGSYFCQHHSDNPWTFGGGTELEIKRTVAAPSVFIFPPSDEQLKSGTASVVCLLNNFYPREAKVQWKVDNALQSGNSQESVTEQDSKDSTYSLSSTLTLSKADYEKHKVYACEVTHQGLSSPVTKSFNRGEC
notes: IgG1,kappa
In the case of B9, the binding result was “binds” in experiment [1] and “no binding (tested: 0.003-10 µg/mL)” in experiment [2].

B10: IgG1-G28.1-E430G (antibody)
heavy: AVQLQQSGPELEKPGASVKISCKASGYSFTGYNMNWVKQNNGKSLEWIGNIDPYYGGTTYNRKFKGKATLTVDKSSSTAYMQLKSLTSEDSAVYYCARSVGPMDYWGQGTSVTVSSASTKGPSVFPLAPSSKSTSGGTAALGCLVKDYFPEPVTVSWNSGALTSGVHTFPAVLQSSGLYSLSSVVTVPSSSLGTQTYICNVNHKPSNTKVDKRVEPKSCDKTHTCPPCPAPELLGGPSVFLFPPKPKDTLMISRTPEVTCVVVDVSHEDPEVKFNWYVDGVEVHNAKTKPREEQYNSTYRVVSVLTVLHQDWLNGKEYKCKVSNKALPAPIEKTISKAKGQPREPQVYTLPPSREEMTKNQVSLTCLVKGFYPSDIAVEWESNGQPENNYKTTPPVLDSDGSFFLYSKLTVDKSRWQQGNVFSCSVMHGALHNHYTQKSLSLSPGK
light: DIQMTQSPASLSASVGETVTITCRTSENVYSYLAWYQQKQGKSPQLLVSFAKTLAEGVPSRFSGSGSGTQFSLKISSLQPEDSGSYFCQHHSDNPWTFGGGTELEIKRTVAAPSVFIFPPSDEQLKSGTASVVCLLNNFYPREAKVQWKVDNALQSGNSQESVTEQDSKDSTYSLSSTLTLSKADYEKHKVYACEVTHQGLSSPVTKSFNRGEC
notes: as for B1
Consider B10, for which the values for the binding result in experiment [1] and in experiment [2] were “binds” and “no binding (tested: 0.003-10 µg/mL)”, respectively.

B11: IgG1-005-H1L2-E430G (antibody)
heavy: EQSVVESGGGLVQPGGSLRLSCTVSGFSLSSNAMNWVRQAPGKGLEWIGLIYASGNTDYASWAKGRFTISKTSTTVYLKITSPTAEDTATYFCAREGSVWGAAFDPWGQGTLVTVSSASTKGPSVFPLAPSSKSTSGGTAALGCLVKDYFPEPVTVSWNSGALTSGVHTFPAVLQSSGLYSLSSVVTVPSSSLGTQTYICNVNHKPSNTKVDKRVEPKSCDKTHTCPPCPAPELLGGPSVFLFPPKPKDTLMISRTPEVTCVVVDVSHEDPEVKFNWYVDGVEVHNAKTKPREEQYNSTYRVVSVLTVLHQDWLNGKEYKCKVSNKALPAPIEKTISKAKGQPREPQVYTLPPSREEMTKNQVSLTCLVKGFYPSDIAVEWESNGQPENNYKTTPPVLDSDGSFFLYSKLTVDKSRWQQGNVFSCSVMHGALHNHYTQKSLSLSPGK
light: AYDMTQSPSSVSASVGDRVTITCQASQSISNWLAWYQQKPGKAPKQLIYAASTLASGVPSRFKGSGSGTDFTLTISSLQPEDFATYYCQQGYSNSNIDNTFGGGTKVEIKRTVAAPSVFIFPPSDEQLKSGTASVVCLLNNFYPREAKVQWKVDNALQSGNSQESVTEQDSKDSTYSLSSTLTLSKADYEKHKVYACEVTHQGLSSPVTKSFNRGEC
notes: as for B1
For B11, the binding result in experiment [1] and in experiment [2] was “binds” in each case.

B12: IgG1-005-H1L2 (antibody)
heavy: not shown
light: AYDMTQSPSSVSASVGDRVTITCQASQSISNWLAWYQQKPGKAPKQLIYAASTLASGVPSRFKGSGSGTDFTLTISSLQPEDFATYYCQQGYSNSNIDNTFGGGTKVEIKRTVAAPSVFIFPPSDEQLKSGTASVVCLLNNFYPREAKVQWKVDNALQSGNSQESVTEQDSKDSTYSLSSTLTLSKADYEKHKVYACEVTHQGLSSPVTKSFNRGEC
notes: Humanized, IgG1,kappa
Regarding B12, in experiment [1], the binding result is on record as “binds”.

B13: IgG1-37.3 (antibody)
heavy: not shown
light: DIQMTQSPASLSVSVGETVTITCRASENIRSNLAWYQQKQGKSPQLLVNVATNLADGVPSRFSGSGSGTQYSLKINSLQSEDFGTYYCQHYWGTTWTFGGGTKLEIKRTVAAPSVFIFPPSDEQLKSGTASVVCLLNNFYPREAKVQWKVDNALQSGNSQESVTEQDSKDSTYSLSSTLTLSKADYEKHKVYACEVTHQGLSSPVTKSFNRGEC
notes: IgG1,kappa
Regarding B13, in experiment [1], the binding result is “binds”.

B14: IgG1-37.3-E430G (antibody)
heavy: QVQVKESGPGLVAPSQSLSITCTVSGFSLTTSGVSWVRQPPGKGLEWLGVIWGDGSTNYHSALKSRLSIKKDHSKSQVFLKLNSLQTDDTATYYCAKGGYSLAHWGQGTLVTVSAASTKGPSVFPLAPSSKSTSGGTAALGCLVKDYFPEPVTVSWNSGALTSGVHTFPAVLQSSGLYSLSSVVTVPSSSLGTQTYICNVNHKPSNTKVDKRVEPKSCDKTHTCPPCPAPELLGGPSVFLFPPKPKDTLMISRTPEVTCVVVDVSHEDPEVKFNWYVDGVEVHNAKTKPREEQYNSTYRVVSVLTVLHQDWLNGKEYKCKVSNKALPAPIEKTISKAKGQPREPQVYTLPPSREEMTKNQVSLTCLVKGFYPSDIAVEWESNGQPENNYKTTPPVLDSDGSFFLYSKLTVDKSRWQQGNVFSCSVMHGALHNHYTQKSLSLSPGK
light: DIQMTQSPASLSVSVGETVTITCRASENIRSNLAWYQQKQGKSPQLLVNVATNLADGVPSRFSGSGSGTQYSLKINSLQSEDFGTYYCQHYWGTTWTFGGGTKLEIKRTVAAPSVFIFPPSDEQLKSGTASVVCLLNNFYPREAKVQWKVDNALQSGNSQESVTEQDSKDSTYSLSSTLTLSKADYEKHKVYACEVTHQGLSSPVTKSFNRGEC
notes: as for B1
Consider B14, for which the binding result in experiment [1] is “binds”.
